From patent US20060073508A1

B1: Del322-325 human alpha-2C adrenergic receptor, P18825 1-462 (receptor)
chain: MASPALAAALAVAAAAGPNASGAGERGSGGVANASGASWGPPRGQYSAGAVAGLAAVVGFLIVFTVVGNVLVVIAVLTSRALRAPQNLFLVSLASADILVATLVMPFSLANELMAYWYFGQVWCGVYLALDVLFCTSSIVHLCAISLDRYWSVTQAVEYNLKRTPRRVKATIVAVWLISAVISFPPLVSLYRQPDGAAYPQCGLNDETWYILSSCIGSFFAPCLIMGLVYARIYRVAKRRTRTLSEKRAPVGPDGASPTTENGLGAAAGAGENGHCAPPPADVEPDESSAAAERRRRRGALRRGGRRRAGAEGGAGGADGQGAAESGALTASRSPGPGGRLSRASSRSVEFFLSRRRRARSSVCRRKVAQAREKRFTFVLAVVMGVFVLCWFPFFFIYSLYGICREACQVPGPLFKFFFWIGYCNSSLNPVIYTVFNQDFRPSFKHILFRRRRRGFRQ
B2: wild-type human alpha-2C adrenergic receptor, P18825 1-462 (receptor)
chain: MASPALAAALAVAAAAGPNASGAGERGSGGVANASGASWGPPRGQYSAGAVAGLAAVVGFLIVFTVVGNVLVVIAVLTSRALRAPQNLFLVSLASADILVATLVMPFSLANELMAYWYFGQVWCGVYLALDVLFCTSSIVHLCAISLDRYWSVTQAVEYNLKRTPRRVKATIVAVWLISAVISFPPLVSLYRQPDGAAYPQCGLNDETWYILSSCIGSFFAPCLIMGLVYARIYRVAKRRTRTLSEKRAPVGPDGASPTTENGLGAAAGAGENGHCAPPPADVEPDESSAAAERRRRRGALRRGGRRRAGAEGGAGGADGQGAGPGAAESGALTASRSPGPGGRLSRASSRSVEFFLSRRRRARSSVCRRKVAQAREKRFTFVLAVVMGVFVLCWFPFFFIYSLYGICREACQVPGPLFKFFFWIGYCNSSLNPVIYTVFNQDFRPSFKHILFRRRRRGFRQ
B3: polymorphic Lys251 human alpha-2A adrenergic receptor, P08913 16-465 (receptor)
chain: MGSLQPDAGNASWNGTEAPGGGARATPYSLQVTLTLVCLAGLLMLLTVFGNVLVIIAVFTSRALKAPQNLFLVSLASADILVATLVIPFSLANEVMGYWYFGKAWCEIYLALDVLFCTSSIVHLCAISLDRYWSITQAIEYNLKRTPRRIKAIIITVWVISAVISFPPLISIEKKGGGGGPQPAEPRCEINDQKWYVISSCIGSFFAPCLIMILVYVRIYQIAKRRTRVPPSRRGPDAVAAPPGGTERRPKGLGPERSAGPGGAEAEPLPTQLNGAPGEPAPAGPRDTDALDLEESSSSDHAERPPGPRRPERGPRGKGKARASQVKPGDSLPRRGPGATGIGTPAAGPGEERVGAAKASRWRGRQNREKRFTFVLAVVIGVFVVCWFPFFFTYTLTAVGCSVPRTLFKFFFWFGYCNSSLNPVIYTIFNHDFRRAFKKILCRGDRKRIV
B4: wild-type Asn251 human alpha-2A adrenergic receptor, P08913 16-465 (receptor)
chain: MGSLQPDAGNASWNGTEAPGGGARATPYSLQVTLTLVCLAGLLMLLTVFGNVLVIIAVFTSRALKAPQNLFLVSLASADILVATLVIPFSLANEVMGYWYFGKAWCEIYLALDVLFCTSSIVHLCAISLDRYWSITQAIEYNLKRTPRRIKAIIITVWVISAVISFPPLISIEKKGGGGGPQPAEPRCEINDQKWYVISSCIGSFFAPCLIMILVYVRIYQIAKRRTRVPPSRRGPDAVAAPPGGTERRPNGLGPERSAGPGGAEAEPLPTQLNGAPGEPAPAGPRDTDALDLEESSSSDHAERPPGPRRPERGPRGKGKARASQVKPGDSLPRRGPGATGIGTPAAGPGEERVGAAKASRWRGRQNREKRFTFVLAVVIGVFVVCWFPFFFTYTLTAVGCSVPRTLFKFFFWFGYCNSSLNPVIYTIFNHDFRRAFKKILCRGDRKRIV

Experiments:
[1] = molecular target: Gi (endogenous G protein of the CHO cells); experiment: cell-based or functional assay
[2] = molecular target: Gi/Go (endogenous G proteins of the CHO cells); experiment: cell-based or functional assay

Binder	inhibition of adenylyl cyclase (epinephrine) [1] [% inhibition]	high affinity dissociation constant KH of epinephrine (competition with [3H]yohimbine, no GTP) [2] [nM]	percentage of receptors in the high-affinity state (% RH) [2] [%]	inhibition of adenylyl cyclase [1] [% inhibition]	stimulation of MAP kinase (fold increase over basal) [1]
B1	10	7.3	31	–	–
B2	73	3.7	42	–	–
B3	–	–	–	60	57
B4	–	–	–	46	15
